One assay concerns the target T1, human Ang2-RBD-muFc (human, UniProt O15123 275-496, limits assumed).
T1 construct: also called Human ANG2 (KinExA); not shown: murine Fc (muFc)
T1 sequence: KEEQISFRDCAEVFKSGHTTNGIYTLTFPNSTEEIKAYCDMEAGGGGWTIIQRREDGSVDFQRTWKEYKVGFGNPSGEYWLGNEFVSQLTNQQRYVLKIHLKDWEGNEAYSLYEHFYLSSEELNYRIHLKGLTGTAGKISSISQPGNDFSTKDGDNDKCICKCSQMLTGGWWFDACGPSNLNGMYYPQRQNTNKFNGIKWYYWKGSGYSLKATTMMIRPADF
Briefly: KinExA, human ANG2 (Ang2-RBD-muFc) by the table's title; the column's head prints VEGFA-121. The protocol:
All KinExA® experiments were performed at room temperature (RT) using PBS pH 7.4 with 0.01% BSA and 0.01% Tween® 20 (BioRad, #161-0781) as running buffer. […] A flow rate of 0.25 ml/min was used. A constant amount of Ang2-RBD-muFc (50 pM and in a second experiment 500 pM) was titrated with tested antibody by twofold serial dilution starting at 4 nM (concentration range 1.95 pM-4000 pM). Antigen-antibody complexes were incubated at RT for at least 8 h to allow equilibrium to be reached. Equilibrated mixtures were then drawn through a column of Anti-Ang2 antibody (MAB098) coupled beads in the KinExA® system at a volume of 750 μl for 50 pM constant Ang2 and at a volume of 188 μl for 500 pM constant Ang2 permitting unbound Ang2 to be captured by the beads without perturbing the equilibrium state of the solution. Bound Ang2 was detected using a second biotinylated anti-Ang2 antibody (BAM0981) with a concentration of 250 ng/ml and following by an injection of 250 ng/ml Streptavidin Alexa Fluor™ 647 conjugate in sample buffer. Each sample was measured in duplicates for all equilibrium experiments. The KD was obtained from non-linear regression analysis of the data using a one-site homogeneous binding model contained within the KinExA® software (Version 4.0.11) using the “standard analysis” method. […]
For orientation: In KinExA the mixture passes briefly over coated beads that capture the unbound partner.

Assay [1] deals with T2, human VEGFA-121-His (human, UniProt P15692 181-395).
T2 construct: Prepared in-house; not shown: His tag
T2 sequence: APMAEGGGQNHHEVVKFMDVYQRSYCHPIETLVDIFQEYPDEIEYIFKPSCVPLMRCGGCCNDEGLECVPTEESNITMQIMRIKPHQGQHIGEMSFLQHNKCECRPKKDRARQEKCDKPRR
Briefly: SPR, VEGF-A121-His captured by anti-His antibody, Fab injected, single cycle kinetics, 1:1 fit. How it is done:
(§1) An anti-His capturing antibody (GE Healthcare 28995056) was immobilized to a Series S Sensor Chip C1 (GE Healthcare BR100535) using standard amine coupling chemistry resulting in a surface density of approximately 600 resonance units (RU). As running and dilution buffer, HBS-P+ (10 mM HEPES, 150 mM NaCl pH 7.4, 0.05% Surfactant P20) was used. […] A dilution series of the tested antibody (3.7-300 nM, 1:3 dilution) was successively injected for 60 s each, dissociation was monitored for 3600 s at a flow rate of 30 μl/min (single cycle kinetics). The surface was regenerated by injecting 10 mM Glycine pH 1.5 for 60 s at a flow of 5 μl/min. […] Curve fitting was performed using the 1:1 Langmuir binding model within the Biacore® evaluation software.
(In general: Surface plasmon resonance follows binding to a sensor surface in real time, without labels.)

Assay [2] deals with T2, human VEGFA-121-His. Nature of the assay: KinExA equilibrium titration in solution, constant VEGFA-121-His. The protocol:
All KinExA® experiments were performed at room temperature (RT) using PBS pH 7.4 with 0.01% BSA and 0.01% Tween® 20 (BioRad, #161-0781) as running buffer. […] A flow rate of 0.25 ml/min was used. […] Antigen-antibody complexes were incubated at RT for at least 8 h to allow equilibrium to be reached. […] Each sample was measured in duplicates for all equilibrium experiments. The KD was obtained from non-linear regression analysis of the data using a one-site homogeneous binding model contained within the KinExA® software (Version 4.0.11) using the “standard analysis” method. The software calculates the KD and determines the 95% confidence interval by fitting the data points to a theoretical KD curve. The 95% confidence interval is given as KD low and KD high.

The target of assay [3] is T2, human VEGFA-121-His. Briefly: SPR, VEGF-A121-His captured by anti-His antibody, Fab injected, single cycle kinetics. How it is done: as §1

We go through two molecules from patent US20220073599A1 (Hoffmann-La Roche, published 2022).

By Kd is commonly meant the equilibrium constant for the complex coming apart. Higher therefore signals a looser complex. Broadly, the kon is the second-order rate constant of association. Read a high kon as fast association.

B1: bispecific anti-VEGF-A/anti-ANG2 Fab fragment P1AD9820 (Fab, V domains shown)
VH: SEHLVESGGGLVKPGGSLRLSCATADFFEYDDMSWVRQAPGKGLEWVGSISPKGDHKYLNTKFIGRFTISRDDSKNTLYLQMNSLRAEDTAVYYCARDVGFFDWWGQGTLVTVSS
VL: AIYMHQEPSSLSASVGDRVTITCHGSYWLNSEVAWYQQKPGKAPKLLIFDGDFKVYEVPSRFSGSGSHEDYTLTISSLQPEDFATYYCQQYRYHPYTFGHGTKVEIKR
notes: Bispecific Fab with two paratopes in one VH/VL pair; also called P1AD9820 Fab
Take B1: in the assay with human Ang2-RBD-muFc, the Kd is around 2 pM.

B2: bispecific anti-VEGF-A/anti-ANG2 Fab fragment P1AA8906 (Fab, V domains shown)
VH: DFQLVESGGGLVKPGGSLRLSCAASYEFEYDDMSWVRQAPGKGLEWVGSISPKGGSTYYNTKFIGRFTISRDNSKNTLYLQMNSLRAEDTAVYYCARDVGFFDMWGQGTLVTVSS
VL: AIYMHQEPSSLSASVGDRVTITCHGSYWLSNYLAWYQQKPGKAPKLLIFDARWLVHGVPSRFSGSGSHEDYTLTISSLQPEDFATYYCQQYRYHPYTFGHGTKVEIKR
notes: Bispecific Fab with two paratopes in one VH/VL pair (DutaFab); CH1 and Ckappa
B2 yielded an on-rate constant (kon) with human VEGFA-121-His [1] of 1.66e+06 M⁻¹ s⁻¹. Also, the Kd with human VEGFA-121-His [2] is 10.9 pM. The “t1/2” value with human VEGFA-121-His [3] was 42.5 h.
